Reference: US20060073508A1 (published 2006)

Biological target: GRK2 (βARK1)
Experiment: cell-based or functional assay

B1: hemagglutinin epitope-tagged Del301-303 human alpha-2B adrenergic receptor (receptor)
chain: YPYDVPDYAMDHQDPYSVQATAAIAAAITFLILFTIFGNALVILAVLTSRSLRAPQNLFLVSLAAADILVATLIIPFSLANELLGYWYFRRTWCEVYLALDVLFCTSSIVHLCAISLDRYWAVSRALEYNSKRTPRRIKCIILTVWLIAAVISLPPLIYKGDQGPQPRGRPQCKLNQEAWYILASSIGSFFAPCLIMILVYLRIYLIAKRSNRRGPRAKGGPGQGESKQPRPDHGGALASAKLPALASVASAREVNGHSKSTGEKEEGETPEDTGTRALPPSWAALPNSGQGQKEGVCGASPEDEAEEEEEEEEECEPQAVPVSPASACSPPLQQPQGSRVLATLRGQVLLGRGVGAIGGQWWRRRAQLTREKRFTFVLAVVIGVFVLCWFPFFFSYSLGAICPKHCKVPHGLFQFFFWIGYCNSSLNPVIYTIFNQDFRRAFRRILCRPWTQTAW
  agonist-promoted whole cell phosphorylation of the receptor (10 µM norepinephrine): 3.28 fold increase
